Data set [1] has as its target T1, rVEGF164 (rat, UniProt P16612-2 27-190).
T1 sequence: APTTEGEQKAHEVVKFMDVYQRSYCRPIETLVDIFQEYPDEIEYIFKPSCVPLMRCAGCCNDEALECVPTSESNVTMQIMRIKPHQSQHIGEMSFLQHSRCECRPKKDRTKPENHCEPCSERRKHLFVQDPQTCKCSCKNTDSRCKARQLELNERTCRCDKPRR
Description: ELONA2.

The target of a further data set is hVEGF165 (human, UniProt P15692-4 27-191). In words: ELONA1.
Data set [2] addresses T1, rVEGF164. Description: ELONA1.

The values below come from article PMC6547419.

A word on the Kd: it is the equilibrium constant for the complex coming apart. Lower therefore signals a tighter complex.

As for TGTGGGGGTGGACGGGCCGGGTAGA (ssDNA) [V7t1], the Kd in the data set with rVEGF164 [1] is 4.3 ± 0.5 nM; with hVEGF165, 0.77 ± 0.17 nM; with rVEGF164 [2] it was 0.62 ± 0.14 nM.
